{"source": "patent US20200377596A1", "about": "(AMPHIVENA THERAPEUTICS, published 2020)", "binders": {"B1": {"name": "AMV564 (bispecific antibody)", "chain": "DIQMTQSPSSLSASVGDRVTITCRSSTGAVTTSNYANWVQQKPGKAPKALIGGTNKRAPGVPSRFSGSLIGDKATLTISSLQPEDFATYYCALWYSNLWVFGQGTKVEIKGGSGGSQVQLVQSGAEVKKPGASVKVSCKASGYTFTSYDINWVRQAPGQGLEWMGWMNPNSGNTGFAQKFQGRVTMTRDTSTSTVYMELSSLRSEDTAVYYCARDRANTDYSLGMDVWGQGTLVTVSSGGSGQSVLTQPPSASGTPGQRVTISCSGSRSNIGSNTVNWYQQLPGTAPKLLIYGNNQRPSGVPDRFSGSKSGTSASLAISGLQSEDEADYYCATWDDSLIGWVFGGGTKLTVLGGSGGSEVQLVESGGGLVQPGGSLRLSCAASGFTFSTYAMNWVRQAPGKGLEWVGRIRSKYNNYATYYADSVKDRFTISRDDSKNSLYLQMNSLKTEDTAVYYCARHGNFGNSYVSYFAYWGQGTLVTVSS"}}, "biological_target": "CD33 (UniProt P20138 18-364, limits assumed)", "sequence (P20138 18-364 limits assumed)": "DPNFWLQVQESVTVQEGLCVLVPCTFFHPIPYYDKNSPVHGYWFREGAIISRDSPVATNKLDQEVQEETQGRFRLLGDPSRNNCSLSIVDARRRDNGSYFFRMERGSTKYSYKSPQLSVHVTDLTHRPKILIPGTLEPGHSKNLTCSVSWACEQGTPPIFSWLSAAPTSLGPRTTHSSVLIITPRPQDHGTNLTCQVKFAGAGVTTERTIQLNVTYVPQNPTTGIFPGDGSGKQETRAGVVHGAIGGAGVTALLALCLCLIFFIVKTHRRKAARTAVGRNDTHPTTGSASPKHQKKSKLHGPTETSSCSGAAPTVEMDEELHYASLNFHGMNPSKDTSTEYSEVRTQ", "assay": "cell-based or functional assay"}
{"binder": "B1", "values": [{"measurement": "proliferation of CD4+ and CD8+ T cells", "value": "> 2", "unit": "fold"}]}
